Data as given in the domain aggregation screens of Martell et al. (2025).

Assay: soluble fraction after stress (log2 fold change); higher = more stays soluble; pooled small domains, quantitative proteomics
Details: stress: pH 4
In short: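 High-throughput quantitative proteomics was run on pooled custom libraries of small protein domains following pH 4 stress. Fold changes are on a log2 scale; higher values mean more of a domain remained soluble. The fold change in soluble amount is taken as a measure of aggregation propensity.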

Row | Sequence | soluble fraction (log2)
1 | HMDFTHFTLKQDGKFAGSSNLLHQAVIAAARLAAETGKPVTVMAHVRGGGTRKAVFNPDGTNDKIWN | -0.0338
2 | HMDLPSSETLKVKLNLAKAYVTIEDFGAARRALDEVLSVSSLVDPDLTIQAKSLLAEIDQRS | -0.0976
3 | HMTEVPSLSSLKIGDLIFYRNNKGAIAHSAIITSFYNGRPFISQHTFNALNITYVKDWASKMHFIKIW | -0.934
4 | HMRSSAATMFGRIALKNKLVDEATLKKVMSELPAGADLGAVLVKQGLISEQHAEAIQKKITAHMKSAP | 0.0511
5 | HMHVYQSLVTDRVVPGGGYRTTEAILSTEAWRNTLLEQAKRELIGVRNKYASLTELAKVWTAIDTVT | -0.249
6 | HMKKDLATYAYEHIKQMVIDRELMPGERIQQEVLARELGISRTPLVTALNRLASENLVELEANKGFSVRRF | 0.429
7 | HMDDKLKKLEEVFEMQEGTLTPDMRLDELEEWDSMTRLSLIVMMEDDYGKKVKRSEVMNYTTVQDIVDSME | -0.946
8 | HMQPLGHDLTERELDVLALMVTGMNNSEIADKLVVSRSTIKYHVSNILSKLQATSRTEAVAYALQQNLVH | -1.41
9 | HMKSYAQIAEILSGQQPNTSRKEGSNLAVHADWIDALIAKYGTALRPEEANEVVKKEIGIVFSHVLEN | -1
10 | HMEWEVHSVTVTPELSGERLDVAATALLSQFSRALVQRWIDANELTLNERPVKAKSKVRVGDLIAVKAK | 0.0878
11 | HMQEHAHLWRLMEDNRSFKADYIAFENGIVLLQNLSSGKISQYPITDFSIEDQLLILKRHELTAHINAN | -0.0419
12 | HMSFKQARFMMDAANGKALAWLYSHAEVLDRKDQGENIEIHVMISPADLSRFVNAFGYQPVQS | -0.0667
13 | HMESMIGSLRGRLLELFGDGEVLIEVGGVGYRVIVTPTTTVRLGDVGGDVFVHVHHHIREADQTLYGF | -0.722
14 | HMDIVENSMPNVVGLELNRAKELMTQLGFTNVRYEPTESSRPENEVVYQSVDKDETLDVSSEIIIQYSSGV | -0.535
15 | HMLANLNKELQNDAALLKQKAQGNSNLLAKIQDVEQQMKQVNTSSASDEAKAKELQTLQRKLTAYKKALA | -0.0638
16 | HMDDERDRLVQQAMEGLSPALREILLLAYFQRMPYNQIAESLRIPLGTVKSRLHAAVAAFAKRWQELNRS | -0.475
17 | HMDKKIVGVNAGKVWQALNEVTEISIVELAEKLNLSVESTALAAGWLAREDQISIERKNGTIELQRKN | -0.177
18 | HMIRQGTKQALLIEMLQRPEGASITEIVEATSWQAHTARGAISGALKKKLGLPITSEKHPERGTVYKL | -0.55
19 | HMAKMPSIIIMKDGVIRTSELEQIERDENWLNEEMKKQHIDNPEDVFLAEFWDGKVNFILQDGKIK | -0.78
20 | HMISESIPAKDALLRLLNTAYQTRTNAAGEFYFNDVPPGKYILQASVNDVEIIRENISINEN | -0.433
21 | HMTAYEGLPVTLIIDGRVFQQNLQKMNLSVEWLRLELKKFGVTNLKEVLFASLDTEGKLFYQLKT | -0.878
22 | HMGQVEVPDVVGMTQERAITTLTEAKLVAQIQLTPADVAKGLVAAQSPRAGLKIGEGSFVTIEVSTGPVI | 0.229
23 | HMPTITIQRGIILSSTTKGFIDELSHSQIKNAIVERLGEHHVMIHESQLDAVIKYAQKKEAVINIYL | -0.0875
24 | HMHRIKRRNDTLVSALDSIAGIGAKRKKALLQHFGSVRAIKAVSAEEIAKVEGISPTLANQIFEAL | -0.0221
25 | HMNTGLSEREHEIAQLVLQGRTYAEIGAELFISPRTAEHHIGQIRRRLAATSRSDLLAKLRVAMNTTEGAG | -0.567

Row | Sequence | soluble fraction (log2)
26 | HMSGMNSDHRVNGNIHTFLIQHDLGTKWSVFTEQLLKQVFRSFLPDKELNFQTTDSTVILKVSLGSDFNEH | -0.19
27 | HMEMTEDEITKQFDAMEREAKKEIDTGADKRAFMYGVSRTAAGMAGKNPKYARFITDKAKEVIENIAKYK | 0.207
28 | HMEMKHKNSQIFQAIKLKHMGFTPTQISEELRVSRTTINHWLTKAQLKDVKWEDIRENSADELVKLLFG | -0.322
29 | HMLPEGIENGDVLTRTDALDYRKWLVTGNQKRIFASTASFYGENFNYSEVKAVSDRVLDAIPDGEPV | -0.549
30 | HMLSVTLTVLPQQAGERLDAFAAAESTLSRSAAAKLIEDGQITVNGARAAKNYRLRAGDVIEIDEPEPI | 0.194
31 | HMKFSVEEQFKKSFPKNTYETFSETSLKGVYEVYNGKQVYYYLPVNDVLLLGSIVTKDGKNLTQESNSKK | -0.0849
32 | HMAEPAEDLLSLEGMDKGLAYQLASNGVVTREDLAELATDDLLEIREMDAEQAAALIMKAREHWFEAEQQ | -1.94
33 | HMNKPLFVYPNPVHQGKINLSKATNFMVVDLLGQTVNKTNYGKDFSIDNLPNGVYFIKTTEGEIIKFMK | -0.496
34 | HMSSRSLSYSDFIERVDAGQVSKVVMDGERLVVVGQDGTSYVTIKPPGDQVTENLSRELISKGVEVEAEPQ | ≥ 0.43
35 | HMHQVHKIDGVKYYLHLVEKGNTLYGISKQYNVSVERIEKANTEALSDGLKENQTLLIPVTSDNKKT | 0.0091
36 | HMTLGSVRTVRQVLDDGRLLVADSGGNVTLVRRAGTLAKENVNTGDRVSVDSSVRFALTLIPV | -0.00374
37 | HMRRISLEDWQLIESLIRRDWSPEQISLWLKKYKKIRVSHEWIYQYILKDKSKAGDLHTHLRSR | -0.419
38 | HMIDFDEIEILSSSKIEKIENSEYLKSSIFEKDSNQYIYRLSFENRDQLKNFKKEIEDIDQIKKIDVTY | -0.665
39 | HMFFDKIIVDFLADGSRIDKYISTLYPDISRTHIQRLIAEQFILVNDSVVKSNYKLSTNDVVLIHIPEA | -1.78
40 | HMDKENVLQLQKDLLRLSVNALEKRYYQFSDILLLKYILPLVPKEISIDDQSRLRSLLSGIN | -0.754
41 | HMKVTADVVVADRLKAWIISNNLKPGDRLPTEQKLSEELGVARHTLREGIKRLSQLGIIGSRTGSGMYVKN | 0.158
42 | HMNNVDQLIEQYKTLPGGLLPLLHAIKHALGYIPESTVGSIAKGFNLSRAEVHGVISFYHDFNTQP | -0.365
43 | HMDPLGHVIKKKRLQLGMTLRDLAAKAGVHHATIDRIETDQFKVVDPSTLVKIAEALHLDQLYLLSLN | -0.532
44 | HMNVDLLEARIPIQSHGMRLDQVVAELFPDYSRNRLAAWIKEGRLTVDGKTMKPRDRALASAHVVLEVV | -0.197
45 | HMGFDTSMNKYTIDDLLKLLELGSNPSQAEIVNKITNFNTIFVDNSGVIQFLNNIQDKLLDNFK | -0.95
46 | HMVHSEDLQDHKYVSQLGEVFLKENPNYENIKKSWGDHMVVIKKFGRYPHRNKILNRKSTPEELEFLKG | -0.115
47 | HMGVMNEYEELRDRYLTGQIWKIGDLVEAKGIEGKIIQRGTNYITFNDSQGKVHKAWLHEIKV | ≥ 0.43
48 | HMLSLTSRQQEIFDLIKGHIKKTGMPPTRSEIALHFGFRSANSAEEHLRALARKGFIELIPGTSRGIKLIE | ≥ 0.43
49 | HMLAGKTYEVQTESGGKWTLVASYNVKSQAIQQAQALLESHKYSGVKVIAESDRKGEEVIFNEQSEVT | 0.104
50 | HMLPAGAAAPLEDGSAPEGYTVKGNADSGLYHEPDGRWYDATVAEFWFKTAADAEAAGFRKAGS | -0.741

Row | Sequence | soluble fraction (log2)
51 | HMRNANENTLKDLPVAVPNIHVSNIEEKKDFHLIQLEYSQEFDPREDLFNFAVNSSWVILKMTPT | ≥ 0.43
52 | HMSAQDLIVKTDATQVEARVLEISPEQIRYKRFSNPDGPTYVLPVDAVDYIRYANGETDSFR | -0.446
53 | HMQDGVNLENIEQKLSTLGVGKAQYFLQNVGGNKFNAYMALNTDGVEGYQKGSDTLIEIKNVE | 0.0934
54 | HMPAVTEQTRANLRTAFWSLYREKPTSKITVREITDRAGYNRATFYLYYRDVYDLFEQIEQEIL | -1.36
55 | HMSNATELVYDDGRKLLISYETLVGGYHPDLGWIRTAKTYSISTDKHIRNYFNNVTNPRVVGEDILETLKI | -0.237
56 | HMIAWNFDTMKESLSEMERVDYQEFIKAFLSLELSISDRTILNQVYQDYMDEDDLSLISDELRV | -1.4
57 | HMIVVMARETSTDDLEAIRERIESRGMVAQINLGVERTVIGVMGSIPPDFKDEMELMNGVVEVVMISK | -1.64
58 | HMKNIINFIVKEDDNNKRVDMILANHDKSLSRTRVKNLILDSKLKINERIVQDPSIKTKLNDKIELEIVEP | 0.251
59 | HMEGVTVPDVTRISLDEAEELLTSYGLRFEVADRRANSAFPGNYVIDQAPSAEVIVKPNRKIYLTVNAA | -0.188
60 | HMANSANARKSLVSKLIAGGKIASQSDLVKALKKQGIVVTQGTASRDLEDIGAIRVRNSEGEIVYALT | 0.108
61 | HMNIEEAESILKEIKTVLTDKEYEVYTLRAKGFTYQEIASLLNTTTKSVDGALSRIKTKINNIK | 0.0204
62 | HMNKPKIIINSVDDSVFSDYVKDSLSIAEVARSIGIDNNKINTSVYREIHKRIDSLKLDTSHFTGGAWN | -0.634
63 | HMDQHERQQLLIHIAGGEREALAELYQRTRSAVYGLALSYLKNAHDAQDLTRDVYVQVWDRA | 0.0408
64 | HMSRYQDIANDIEKDIIEKKYTRKLPEQFELAQKYQTSRVTIVHALKILQNKKLIRTVKGHGTFITS | ≥ 0.43
65 | HMESGLPLPRFVSLGADEVNLRTGPGLRYPVAWVFVRKALPVEIVAEFEQWRRVRDFEGAEGWVHKAML | -0.527
66 | HMIYSKSDLELFGIKKIDVMEENILMLILSEYELDQTPKNILIDEAVRLSKKFGADNAYKFVNATLDTLL | -1.51
67 | HMAPQVKIPNLVDVSQRQAEAILNSYGLKVGHLIYKPDLAKDAVLGFMFNGRSLKAGDELAKGSSIDLILG | 0.192
68 | HMTLSENEKIIVDTIMKYQPLHIDVLNQQVKVDFYTLLGLLTKLEMEGIVLKNPGNIYKINTL | -0.865
69 | HMSELIDSLTEAVRSAPDAVPLRLHLAELLLADGQRDRAFAQLGQVLAKDPQNARALEMLGVGS | -0.373
70 | HMEIPRYRLIGADGGRMVDLGEGQGAIPPVDVKRGMIDMPGLGKGYYTADGKSAVITNADGSKTRVL | 0.304
71 | HMDVSPVRLIREARGLSQVEVAKAAGLSRAAYQNIEVGKTVPRASTMVNIARALGVSMDDLLAPV | 0.0681
72 | HMKDMWNRIRRARLSAGLSQAALAKETGVRRSAVTQWEKEGGTSPSVANLARIAVVTQVHFEWLATGRGPG | -0.216
73 | HMRQIMIIVLKSTATKEDSLLFKNKLEQEYGVKVNEWTGVESTVLGLIGDTTKIDIDYISAQDIVESVKRV | -0.494
74 | HMLGITEGSLVRVIRSPNFGKIGTVAELPAELRMMESETMVRIAIVEIEGTNFEIPRSNLEVLET | -1.28
75 | HMSDSGLPLPRFVSLGDDRVNARAGPGFRFPINWVYLRKNFPVEVIDEFGHWRRIKDIDGIEGWIHLSML | -0.734
